For this experiment, the system named is proteins that co-immunoprecipitated with DUX4-CTD constructs expressed in MB135 myoblasts. In words: LC-MS of proteins co-immunoprecipitated with DUX4-CTD (Table 1) and western validation. In kind it is binding, human. As to conditions: for 4. longCTD + Dox + IFNG: LC-MS counts of the listed protein co-immunoprecipitated with DUX4-CTD bait longCTD, experiment 4, Dox + IFNG; for 3. + Dox longCTD: experiment 3, Dox only; for 3. + IFNg + Dox longCTD: experiment 3, IFNg + Dox; for SUM of PSMS: sum over all samples. Set-up: key to 4. mL1dL2 + Dox + IFNG / 4. + IFNG mix / 4. longCTD + Dox + IFNG / 3. + IFNg + Dox longCTD / 3. + Dox longCTD / 3. + IFNG longCTD: peptide-spectrum matches (PSMs) per protein. The procedure, abridged: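 FLAG-tagged DUX4-CTD expressed in doxycycline-induced MB135 myoblasts, some also IFNG-treated; nuclear lysates in pH 7.4 NP-40 IP buffer were pre-cleared, then anti-FLAG immunoprecipitated 3 h at 4 °C. For LC-MS, FLAG-peptide elution, in-gel trypsin digest, Orbitrap analysis; proteins with ≥2 PSMs in both experiments categorised and ranked by total PSMs.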

B1: P12814 (protein, UniProt P12814 1-892, looked up)
chain: MDHYDSQQTNDYMQPEEDWDRDLLLDPAWEKQQRKTFTAWCNSHLRKAGTQIENIEEDFRDGLKLMLLLEVISGERLAKPERGKMRVHKISNVNKALDFIASKGVKLVSIGAEEIVDGNVKMTLGMIWTIILRFAIQDISVEETSAKEGLLLWCQRKTAPYKNVNIQNFHISWKDGLGFCALIHRHRPELIDYGKLRKDDPLTNLNTAFDVAEKYLDIPKMLDAEDIVGTARPDEKAIMTYVSSFYHAFSGAQKAETAANRICKVLAVNQENEQLMEDYEKLASDLLEWIRRTIPWLENRVPENTMHAMQQKLEDFRDYRRLHKPPKVQEKCQLEINFNTLQTKLRLSNRPAFMPSEGRMVSDINNAWGCLEQVEKGYEEWLLNEIRRLERLDHLAEKFRQKASIHEAWTDGKEAMLRQKDYETATLSEIKALLKKHEAFESDLAAHQDRVEQIAAIAQELNELDYYDSPSVNARCQKICDQWDNLGALTQKRREALERTEKLLETIDQLYLEYAKRAAPFNNWMEGAMEDLQDTFIVHTIEEIQGLTTAHEQFKATLPDADKERLAILGIHNEVSKIVQTYHVNMAGTNPYTTITPQEINGKWDHVRQLVPRRDQALTEEHARQQHNERLRKQFGAQANVIGPWIQTKMEEIGRISIEMHGTLEDQLSHLRQYEKSIVNYKPKIDQLEGDHQLIQEALIFDNKHTNYTMEHIRVGWEQLLTTIARTINEVENQILTRDAKGISQEQMNEFRASFNHFDRDHSGTLGPEEFKACLISLGYDIGNDPQGEAEFARIMSIVDPNRLGVVTFQAFIDFMSRETADTDTADQVMASFKILAGDKNYITMDELRRELPPDQAEYCIARMAPYTGPDSVPGALDYMSFSTALYGESDL
modifications: full-length
In the case of B1, the “4. longCTD + Dox + IFNG” value is reported as 34 and the “SUM of PSMS” value was 82. Also, under “bait longCTD”, the “3. + Dox longCTD” value was 4 and the “3. + IFNg + Dox longCTD” value amounted to 13.

B2: Q16643 (protein, UniProt Q16643 1-649, looked up)
chain: MAGVSFSGHRLELLAAYEEVIREESAADWALYTYEDGSDDLKLAASGEGGLQELSGHFENQKVMYGFCSVKDSQAALPKYVLINWVGEDVPDARKCACASHVAKVAEFFQGVDVIVNASSVEDIDAGAIGQRLSNGLARLSSPVLHRLRLREDENAEPVGTTYQKTDAAVEMKRINREQFWEQAKKEEELRKEEERKKALDERLRFEQERMEQERQEQEERERRYREREQQIEEHRRKQQTLEAEEAKRRLKEQSIFGDHRDEEEETHMKKSESEVEEAAAIIAQRPDNPREFFKQQERVASASAGSCDVPSPFNHRPGSHLDSHRRMAPTPIPTRSPSDSSTASTPVAEQIERALDEVTSSQPPPLPPPPPPAQETQEPSPILDSEETRAAAPQAWAGPMEEPPQAQAPPRGPGSPAEDLMFMESAEQAVLAAPVEPATADATEIHDAADTIETDTATADTTVANNVPPAATSLIDLWPGNGEGASTLQGEPRAPTPPSGTEVTLAEVPLLDEVAPEPLLPAGEGCATLLNFDELPEPPATFCDPEEVEGESLAAPQTPTLPSALEELEQEQEPEPHLLTNGETTQKEGTQASEGYFSQSQEEEFAQSEELCAKAPPPVFYNKPPEIDITCWDADPVPEEEEGFEGGD
modifications: full-length
In the case of B2, the “4. longCTD + Dox + IFNG” value is reported as 33 and the “SUM of PSMS” value came to 51. Moreover, for the setting “bait longCTD”, the “3. + Dox longCTD” value is 3 and the “3. + IFNg + Dox longCTD” value was 13.

B3: O75083 (protein, UniProt O75083 1-606, looked up)
chain: MPYEIKKVFASLPQVERGVSKIIGGDPKGNNFLYTNGKCVILRNIDNPALADIYTEHAHQVVVAKYAPSGFYIASGDVSGKLRIWDTTQKEHLLKYEYQPFAGKIKDIAWTEDSKRIAVVGEGREKFGAVFLWDSGSSVGEITGHNKVINSVDIKQSRPYRLATGSDDNCAAFFEGPPFKFKFTIGDHSRFVNCVRFSPDGNRFATASADGQIYIYDGKTGEKVCALGGSKAHDGGIYAISWSPDSTHLLSASGDKTSKIWDVSVNSVVSTFPMGSTVLDQQLGCLWQKDHLLSVSLSGYINYLDRNNPSKPLHVIKGHSKSIQCLTVHKNGGKSYIYSGSHDGHINYWDSETGENDSFAGKGHTNQVSRMTVDESGQLISCSMDDTVRYTSLMLRDYSGQGVVKLDVQPKCVAVGPGGYAVVVCIGQIVLLKDQRKCFSIDNPGYEPEVVAVHPGGDTVAIGGVDGNVRLYSILGTTLKDEGKLLEAKGPVTDVAYSHDGAFLAVCDASKVVTVFSVADGYSENNVFYGHHAKIVCLAWSPDNEHFASGGMDMMVYVWTLSDPETRVKIQDAHRLHHVSSLAWLDEHTLVTTSHDASVKEWTITY
modifications: full-length
For B3, the “4. longCTD + Dox + IFNG” value worked out at 11 and the “SUM of PSMS” value was 16. Moreover, under “bait longCTD”, the “3. + Dox longCTD” value is 1 and the “3. + IFNg + Dox longCTD” value was 2.

B4: P51784 (protein, UniProt P51784 1-963, looked up)
chain: MAVAPRLFGGLCFRFRDQNPEVAVEGRLPISHSCVGCRRERTAMATVAANPAAAAAAVAAAAAVTEDREPQHEELPGLDSQWRQIENGESGRERPLRAGESWFLVEKHWYKQWEAYVQGGDQDSSTFPGCINNATLFQDEINWRLKEGLVEGEDYVLLPAAAWHYLVSWYGLEHGQPPIERKVIELPNIQKVEVYPVELLLVRHNDLGKSHTVQFSHTDSIGLVLRTARERFLVEPQEDTRLWAKNSEGSLDRLYDTHITVLDAALETGQLIIMETRKKDGTWPSAQLHVMNNNMSEEDEDFKGQPGICGLTNLGNTCFMNSALQCLSNVPQLTEYFLNNCYLEELNFRNPLGMKGEIAEAYADLVKQAWSGHHRSIVPHVFKNKVGHFASQFLGYQQHDSQELLSFLLDGLHEDLNRVKKKEYVELCDAAGRPDQEVAQEAWQNHKRRNDSVIVDTFHGLFKSTLVCPDCGNVSVTFDPFCYLSVPLPISHKRVLEVFFIPMDPRRKPEQHRLVVPKKGKISDLCVALSKHTGISPERMMVADVFSHRFYKLYQLEEPLSSILDRDDIFVYEVSGRIEAIEGSREDIVVPVYLRERTPARDYNNSYYGLMLFGHPLLVSVPRDRFTWEGLYNVLMYRLSRYVTKPNSDDEDDGDEKEDDEEDKDDVPGPSTGGSLRDPEPEQAGPSSGVTNRCPFLLDNCLGTSQWPPRRRRKQLFTLQTVNSNGTSDRTTSPEEVHAQPYIAIDWEPEMKKRYYDEVEAEGYVKHDCVGYVMKKAPVRLQECIELFTTVETLEKENPWYCPSCKQHQLATKKLDLWMLPEILIIHLKRFSYTKFSREKLDTLVEFPIRDLDFSEFVIQPQNESNPELYKYDLIAVSNHYGGMRDGHYTTFACNKDSGQWHYFDDNSVSPVNENQIESKAAYVLFYQRQDVARRLLSPAGSSGAPASPACSSPPSSEFMDVN
modifications: full-length
With B4, the “4. longCTD + Dox + IFNG” value amounted to 2 and the “SUM of PSMS” value is given as 4. The “3. + IFNg + Dox longCTD” value (bait longCTD) was 1.

B5: Q07065 (protein, UniProt Q07065 1-602, looked up)
chain: MPSAKQRGSKGGHGAASPSEKGAHPSGGADDVAKKPPPAPQQPPPPPAPHPQQHPQQHPQNQAHGKGGHRGGGGGGGKSSSSSSASAAAAAAAASSSASCSRRLGRALNFLFYLALVAAAAFSGWCVHHVLEEVQQVRRSHQDFSRQREELGQGLQGVEQKVQSLQATFGTFESILRSSQHKQDLTEKAVKQGESEVSRISEVLQKLQNEILKDLSDGIHVVKDARERDFTSLENTVEERLTELTKSINDNIAIFTEVQKRSQKEINDMKAKVASLEESEGNKQDLKALKEAVKEIQTSAKSREWDMEALRSTLQTMESDIYTEVRELVSLKQEQQAFKEAADTERLALQALTEKLLRSEESVSRLPEEIRRLEEELRQLKSDSHGPKEDGGFRHSEAFEALQQKSQGLDSRLQHVEDGVLSMQVASARQTESLESLLSKSQEHEQRLAALQGRLEGLGSSEADQDGLASTVRSLGETQLVLYGDVEELKRSVGELPSTVESLQKVQEQVHTLLSQDQAQAARLPPQDFLDRLSSLDNLKASVSQVEADLKMLRTAVDSLVAYSVKIETNENNLESAKGLLDDLRNDLDRLFVKVEKIHEKV
modifications: full-length
Regarding B5, the “4. longCTD + Dox + IFNG” value stood at 13 and the “SUM of PSMS” value amounted to 152. Further, where the note is “bait longCTD”, the “3. + Dox longCTD” value is given as 30 and the “3. + IFNg + Dox longCTD” value was found to be 62. Also, for the setting “bait longCTD, experiment 3, IFNG only, no doxycycline (bait at background level)”, the “3. + IFNG longCTD” value came to 4.

B6: Q6NZI2 (protein, UniProt Q6NZI2 1-390, looked up)
chain: MEDPTLYIVERPLPGYPDAEAPEPSSAGAQAAEEPSGAGSEELIKSDQVNGVLVLSLLDKIIGAVDQIQLTQAQLEERQAEMEGAVQSIQGELSKLGKAHATTSNTVSKLLEKVRKVSVNVKTVRGSLERQAGQIKKLEVNEAELLRRRNFKVMIYQDEVKLPAKLSISKSLKESEALPEKEGEELGEGERPEEDAAALELSSDEAVEVEEVIEESRAERIKRSGLRRVDDFKKAFSKEKMEKTKVRTRENLEKTRLKTKENLEKTRHTLEKRMNKLGTRLVPAERREKLKTSRDKLRKSFTPDHVVYARSKTAVYKVPPFTFHVKKIREGQVEVLKATEMVEVGADDDEGGAERGEAGDLRRGSSPDVHALLEITEESDAVLVDKSDSD
modifications: full-length
B6: the “4. longCTD + Dox + IFNG” value is 16 and the “SUM of PSMS” value turned out to be 42. In addition, the “3. + IFNg + Dox longCTD” value (bait longCTD) amounted to 3.

B7: P02545 (protein, UniProt P02545 1-664, looked up)
chain: METPSQRRATRSGAQASSTPLSPTRITRLQEKEDLQELNDRLAVYIDRVRSLETENAGLRLRITESEEVVSREVSGIKAAYEAELGDARKTLDSVAKERARLQLELSKVREEFKELKARNTKKEGDLIAAQARLKDLEALLNSKEAALSTALSEKRTLEGELHDLRGQVAKLEAALGEAKKQLQDEMLRRVDAENRLQTMKEELDFQKNIYSEELRETKRRHETRLVEIDNGKQREFESRLADALQELRAQHEDQVEQYKKELEKTYSAKLDNARQSAERNSNLVGAAHEELQQSRIRIDSLSAQLSQLQKQLAAKEAKLRDLEDSLARERDTSRRLLAEKEREMAEMRARMQQQLDEYQELLDIKLALDMEIHAYRKLLEGEEERLRLSPSPTSQRSRGRASSHSSQTQGGGSVTKKRKLESTESRSSFSQHARTSGRVAVEEVDEEGKFVRLRNKSNEDQSMGNWQIKRQNGDDPLLTYRFPPKFTLKAGQVVTIWAAGAGATHSPPTDLVWKAQNTWGCGNSLRTALINSTGEEVAMRKLVRSVTVVEDDEDEDGDDLLHHHHGSHCSSSGDPAEYNLRSRTVLCGTCGQPADKASASGSGAQVGGPISSGSSASSVTVTRSYRSVGGSGGGSFGDNLVTRSYLLGNSSPRTQSPQNCSIM
modifications: full-length
For B7, the “4. longCTD + Dox + IFNG” value worked out at 6 and the “SUM of PSMS” value was found to be 21. Also, under “bait longCTD”, the “3. + IFNg + Dox longCTD” value turned out to be 3.

(Values after patent US20250339531A1, “DUX4 POLYPEPTIDES AND NUCLEIC ACIDS FOR TREATING INFLAMMATORY AND AUTOIMMUNE CONDITIONS” (Fred Hutchinson Cancer Center, priority 2021, published 2025).)
